In general, stoichiometry N refers to the number of molecules, sites or subunits per partner or assembly.

“And” between values parts separate entries of the source, which are not always exact repeats. Equal entries are not always repeated.

Here are results for one substance from PMC5737834.

The target in the test is Recombinant human SP-A1 (SP-A1^hyp) (human) (UniProt Q8IWL2). Description: native gel or EMSA + AUC. In general terms: A gel shift assay detects complexes by their altered migration in electrophoresis.

Turning to “Recombinant human SP-A1 (SP-A1^hyp) (from UniProt Q8IWL2 21-248) (natural protein)”, the stoichiometry N is 3 and 6.
